Measurements as given in patent publication US10202593B2, “Evolved sortases and uses thereof” (President and Fellows of Harvard College, priority 2013, dated 2019).
Positions count from the first letter of the chain named. Names may count otherwise. Like-named read-outs stand apart in the source and are kept apart here.

B1: 4S.6A: 5mut + N98D A104V A118S F122A K134G I182V E189V (protein)
chain: QAKPQIPKDKSKVAGYIEIPDADIKEPVYPGPATREQLDRGVSFVEENESLDDQNISISGHTAIDRPNYQFTNLGAAKKGSMVYFKVGNETRKYKMTSIRNVKPTAVEVLDEQKGKDKQLTLVTCDDYNVETGVWETRKIFVATEVK
B2: 4S.6C: 5mut + N98D A104V A118T F122A K134R I182V E189F (protein)
chain: B1 chain with S59T, G75R, V130F
B3: eSrtA(4S-6): round 6 consensus variant targeting LPESG (protein)
chain: B1 chain

Key:
[1] = system: LPESG (Abz-LPESGK(Dnp)-CONH2); test: In vitro sortase kinetics HPLC assay, LPESG substrate; type: biochemical; conditions: for specificity (relative cat. Efficiency, fold): ratio of kcat/Km between 4S (LPESG) and wt (LPETG) substrates; for kHydrolysis (Hz): 1 mM
Method: (§1) See below for details on sortase expression and purification, and on the synthesis of Abz-LPETGK(Dnp)-CONH2 (SEQ ID NO: 19). […] Reactions were initiated with the addition of enzyme and incubated at 22.5° C. for 3 to 20 minutes before quenching with 0.5 volumes of 1 M HCl. Five to ten nmol of peptide from the quenched reactions were injected onto an analytical reverse-phase Eclipse XDB-C18 HPLC column (4.6×150 mm, 5 μm, Agilent Technologies) and chromatographed using a gradient of 10 to 65% acetonitrile with 0.1% TFA in 0.1% aqueous TFA over 13 minutes. Retention times under these conditions for the Abz-LPETGK(Dnp)-CONH2 (SEQ ID NO: 19) substrate, the released GKDnp peptide, and the Abz-LPETGGG-COOH (SEQ ID NO: 20) product were 12.8, 10.4, and 9.1 min, respectively. To calculate the percent conversion, the ratio of the integrated areas of the Abz-LPETGGG-COOH (SEQ ID NO: 20) and Abz-LPETGK(Dnp)-CONH2 (SEQ ID NO: 19) peptide Abs220 peaks was compared to a standard curve generated by mixing the product and starting peptide in known ratios. To determine […] and Km, reaction rates were fit to the Michaelis-Menten equation using OriginPro 7.0 software. All kinetics values reported represent the average of at least three measurements. Percent conversion was also calculated by using the ratio of the integrated areas of the GK(Dnp)-CONH2 and Abz-LPETGK(Dnp)-CONH2 peptide Abs355 peaks were compared directly (Example 5). To determine kcat and Km, LPETG, reaction rates were fit to the Michaelis-Menten equation using Microsoft Excel using the Solver add-in. To determine Km,GGG and KH, reaction rates were fit to the modified Michaelis-Menten, for which KH is as defined when KH<<Km,GGG.
(§2) Assays to determine eSrtA, eSrtA(2A-9) and eSrtA(4S-9) specificity were performed by preparing 10 μM stocks of Abz-LXEXGK(Dnp) (SEQ ID NO: 75) peptides in 300 mM Tris pH 7.5, 150 mM NaCl, 5 mM CaCl2, 5% v/v DMSO, and 100 mM Gly-Gly-Gly-COOH (GGG). Reactions were performed by adding eSrtA(2A-9) to a final concentration of 450 nM, eSrtA(4S-9) to a final concentration of 115 nM or eSrtA to a final concentration of 47.5 nM and a final volume of 100 μL, then incubating at 22.5° C. for 15 minutes. Reactions were quenched by the addition of 0.2 volumes of 5 M HCl, then were injected onto an analytical reverse-phase Eclipse XDB-C18 HPLC column (4.6×150 mm, 5 μm, Agilent Technologies) and chromatographed using a gradient of 10 to 65% acetonitrile with 0.1% TFA in 0.1% aqueous TFA over 13 minutes. Retention times under these conditions for the Abz-LPETGK(Dnp)-CONH2 (SEQ ID NO: 19) substrate, the released GKDnp peptide, and the Abz-LPETGGG-COOH (SEQ ID NO: 20) product were 12.8, 10.4, and 9.1 min, respectively, while the remaining Abz-LXEXGK(Dnp)-CONH2 (SEQ ID NO: 74) substrates varied in retention time between 9 and 13 minutes. To calculate the percent conversion, the ratio of the integrated areas of the GK(Dnp)-CONH2 and Abz-LPETGK(Dnp)-CONH2 (SEQ ID NO: 19) peptide Abs355 peaks were compared directly. Subsequent determination of kcat/Km and KH were performed as described for in vitro SrtA characterization.
(§3) In each case, rate constants were determined by measuring enzyme velocity at eight different substrate concentrations by HPLC assay, then fit using nonlinear regression to the Michaelis-Menten equation, yielding kcat and Km. KH was calculated by measuring enzyme velocity at 1 mM target substrate and eight different GGG concentrations by HPLC assay, then fitting the resulting curves using nonlinear regression to the modified Michaelis-Menten equation.

[2] = system: LPETG (Abz-LPETGK(Dnp)-CONH2); test: In vitro sortase kinetics HPLC assay, LPETG substrate; type: biochemical; conditions: substrate wt (LPETG)
Method: as §1, §2, §3

mouse tissues = test: Tissue modification with GGG-Biotin (SA-568 fluorescence)
Method: FIG. 10 is a graph showing the relative increase in fluorescence of mouse tissues specifically labeled with GGG-Biotin (detected with SA-568) using a sortase recognizing the LPESG (SEQ ID NO: 3) sortase recognition motif.
Tissue section microarrays were purchased from the BioChain institute (Cat. Z7020001, Lot B508112) and deparaffinized by treatment with 2 changes Xylene for 9 minutes each, 1 change 1:1 Xylene:Ethanol for 3 minutes, 1 change 100% ethanol for 3 minutes, 1 change 90% ethanol for 3 minutes, 1 change 70% ethanol for 3 minutes, 1 change 70% ethanol+0.25% ammonia for 1 hour, 1 change 50% ethanol for 3 minutes, 1 change DI water for 5 minutes. Antigen retrieval was achieved by soaking in 10 mM Citrate pH 6 followed by microwave heating for 2 minutes, then let to rest for 8 minutes. Tissues were washed with 10 mg/mL freshly prepared Sodium borohydride in PBS for 30 minutes on ice, then washed twice with PBS for 3 minutes each.
Slides were blocked in 5% BSA/PBS for 1 hour at room temperature, then 0.001% (w/v) avidin in 5% BSA/PBS for 15 minutes, washed with 5% BSA/PBS, 0.001% (w/v) biotin in 5% BSA/PBS for 15 minutes, washed with 5% BSA/PBS and washed twice in TBS-BC (100 mM TBS, 500 mM NaCl, 0.5% BSA, 5 mM CaCl2) for three minutes. Slides were then treated with 20 uM Enzyme and 200 uM GGG-Biotin for 1 hour at room temperature, washed with 10 mM GGG in 5% BSA/PBS for 3 minutes, then washed twice with 5% BSA/PBS for 3 minutes. Slides were then treated with 2 mg/mL Sudan Black B in 70% EtOH for 30 minutes, washed three times with 5% BSA/PBS, incubated in 5% BSA/PBS+1:250 Streptavidin-568 for 30 minutes, washed 3 times with PBS, incubated with DAPI/PBS for 30 minutes and finally washed 3 times with PBS. Slides were dried, mounted and then visualized by confocal microscopy.
Tissue staining was performed as described previously, with biotin signal false colored in red and DAPI stain false colored in blue. In each case, total integrated biotin signal was computed for both negative control and SrtA+ samples, then background subtracted and used to calculate the total fluorescence enrichment shown in FIG. 10.

[3] = 1 mM 4S (LPESG) substrate, GGG varied
[4] = 1 mM 4S (LPESG) substrate, read-out: Km, GGG
[5] = substrate 4S (LPESG), GGG varied
[6] = substrate 4S (LPESG), read-out: Km, LxExG
[7] = GGG varied, substrate 4S (LPESG)

Row | Molecule | Khydrolysis ([1]; 1 mM 4S (LPESG) substrate) [µM] | kcat, 1 mM LxExG (Hz) [1, 3] [Hz] | Km [1, 4] [µM] | specificity (relative cat. Efficiency, fold) [1] [fold] | kL/KL/KH ([1]; substrate 4S (LPESG)) | kHydrolysis (Hz) [1, 5] [Hz] | kcat, 10 mM GGG (Hz) ([1]; substrate 4S (LPESG)) | Km [1, 6] [µM] | kcat, 10 mM GGG (Hz) [2] [Hz] | Km ([2]; read-out: Km, LxExG) [µM] | other results
1 | B1 | 179.3 | 1.931 | 4950 | 11 | 5.24E+07 | 0.06696 | 0.9537 | 102 | 1.102 | 1290 | increase in kcat/Km for LPESG as compared to LPETG ([1]; FIG. 2): ~5 fold; labeling of tissue with GGG-Biotin (mouse tissues; bladder tissue): specific labeling; labeling of tissue with GGG-Biotin (mouse tissues; pancreas tissue): specific labeling; labeling of tissue with GGG-Biotin (mouse tissues; prostate tissue): specific labeling; labeling of tissue with GGG-Biotin (mouse tissues; small intestine tissue): specific labeling; labeling of tissue with GGG-Biotin (mouse tissues; spleen tissue): specific labeling; labeling of tissue with GGG-Biotin (mouse tissues; testis tissue): specific labeling; labeling of tissue with GGG-Biotin (mouse tissues; uterus tissue): specific labeling
2 | B2 | 334.1 | 1.502 | 36000 | 18.52 | 1.30E+07 | 0.01399 | 0.6657 | 156 | 0.003663 | 16.1 | 
3 | B3 |  |  |  |  |  |  |  |  |  |  | Avg kcat (Hz) ([1]; Example 5 variants, substrate 4S (LPESG)): 0.9425 Hz; Km ([1]; Example 5 variants, substrate 4S (LPESG), read-out: Avg KM): 125 µM; Avg kHydro (Hz) [1, 7]: 0.01782 Hz; Avg kcat (Hz) [1, 7]: 2.004 Hz; Km ([1]; KM for GGG, substrate 4S (LPESG), read-out: Avg KM): 13100 µM; KH (KH,LPESG) ([1]; LPESG substrate): 116 ± 10 µM; Specificity ([1]; ratio of kcat/KM, 4S (LPESG) over wt (LPETG)): 8.094; Avg KH ([1]; substrate 4S (LPESG)): 116.3542 µM; Avg kcat (Hz) ([2]; Example 5 variants): 0.9657 Hz; Km ([2]; Example 5 variants, read-out: Avg KM): 1040 µM
